Results: a protein production outcome set (Wang et al. 2014)

Experiment: label from the status in PepcDB records
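Also: failed if final PepcDB status was selected cloned or expressed and not failed if soluble or beyond.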

## MVFLKRFRAYGFKSYADEITINFTHSMTGIVGPNGSGKSNVVDALKWVLGERSMKHLRSKSGDDMIFFGSKDKPASKLAEVELTFDNSQKLLHDPRPEISVMRRIYRGSGQSEYYINGELVTLKEISGIFADIGLEKGSLGIISQGSVSFVEAKPEERRKIFEDASGIGRYTKRKEEVTNQLARTVQNLKQVSIVLNELKKDLKKLTIQADKAQRFVKLKEELKELELSVLVADYLKSQGELDRFNHQIGYIEQDFKLHEPQLQLLEDQLNIFNQRFRDADEQSIKLQQELQAVYQTINELEQRKAVIDVQLKNELSKKDEKHKIQALKKLIRVDQAQLESLQAQVLKTTSEITLLTNELSTVQTELDTTKLNLNQNSAALVYQQAQQEFLKAQNEEWVKTNPAHVLVKNVKALTGLLNTLNTFLKFEKQYEKALLKALGKSIGYLVVNNNLAALKAIDFLLTNQIGQVTFLPIDDIAFDTKIAPEHMEILQQLDGFLGVGSDHVSCDESLQPIVNALLGQVIIASDLQAALKLSSYTYKLYRVVTLNGETVYAGGIIQGGYVKDNLSLYNLQEKLASSEANITQLEHNEKQLRTNLTSLETKLNELNKKLKYEEILLEKFNERVNHTNKAILSYKIEYEQLTNESFDGTPHSFDETRLVESLNRAWAERDELNSQLKLNQELKETLAKSIKLAEAKTADLRALLDEQRSQLVLAREGKIRFENTIHNITDKINGGYKLTMEFAIANYNKPIKLSTMQAQNKIARMQSQLDEMGPINLESIAEIADKQKRFDDINGEYESLQTAIKDLQTAIGEIDELACKEFDELIQKVNAELPKTFNYLFGGGSCQIRYTDTDNVLLSGIEVFANPPGKNVANLMLLSGGEKTLVALSVLFSILRVSAFPLVILDEAESALDPANVERFANIIGNSSNNTQFLIITHRQGTMMKCDMLLGAAMQTKGVTKTFAVSLEKAEQYISKDKQN
  protein production: failed

## MVFPSEQEQIEKFEKDHVAQHYFEVLRTLISKKSVFAQQVGLKEVANYLGEIFKRVGAEVEIDESYTAPFVMAHFKSSRPDAKTLIFYNHYDTVPADGDQVWTEDPFTLSVRNGFMYGRGVDDDKGHITARLSALRKYMQHHDDLPVNISFIMEGAEESASTDLDKYLEKHADKLRGADLLVWEQGTKNALEQLEISGGNKGIVTFDAKVKSADVDIHSSYGGVVESAPWYLLQALQSLRAADGRILVEGLYEEVQEPNEREMALLETYGQRNPEEVSRIYGLELPLLQEERMAFLKRFFFDPALNIEGIQSGYQGQGVKTILPAEASAKLEVRLVPGLEPHDVLEKIRKQLDKNGFDKVELYYTLGEMSYRSDMSAPAILNVIELAKKFYPQGVSVLPTTAGTGPMHTVFDALEVPMVAFGLGNANSRDHGGDENVRIADYYTHIELVEELIRSYE
  protein production: not failed

## MVGLGTVINVILIIVGGFVGLFLKNFLKESLQKSLMQAMGVAVLFISISGVLEKMMLVEKSHLISNHTNMMIITLALGTVLGELLSLDSYIDKFGNYLKQKTGSGNDIKFVEAFVTSTCTVCIGAMAVVGSIQDGIAADHSILFAKGMLDMIIIAIMTVSLGKGALFSALPVALLQGSLTIVAFFMGSLLNPSSLDYLNLVGNMLIFCVGVNLLFNLNIKVINMLPAIILAILWGSFI
  protein production: failed

## MVIDFSAFYELPRLIDRLAAEGESSFAASRGQAVFPPLNIGEDESAVYVRALIPGGDLSALDLTLTDKTLVLRGELPPVRGRYYRQERRTGPFQRVVLLNVPIDRDRVHAAMRDGVLEVVLPKAQQERLRTIHITTR
  protein production: failed

## MVIETGVWIVLLGATVTAVATGLGALPFLFVRDIGDWWLGVFNAAAGGLMLAASHSLITEGSMLSTGRTLIGILVGLALILGANTFISRGDDHDVAELAGADARKALLILGIMTAHSFAEGVGVGVSYGGGDELGAFITAAIAVHNIPEGLAISLVLVPRGTPLWKAAGWSIFTSLPQPLMAVPAFLFVLVFEPFLPIGFGLAAGAMIWMVFAELIPDALEDVPGPTAGAAVTLAFAALFAFQHFVLHV
  protein production: failed

## MVIGSGVFLTRTCYLRLQPPSLVLRRRFCAATTACSVPLNGNKKKKSEKEKVIVISGPTGAGKSRLAMELAKRLNGEIISADSVQVYKGLDVGSAKPSDSDRKVVPHHLIDILHPSQDYSVGQFYDDGRQATKDILNRGRVPIVTGGTGLYLRWFMYGKPDVPKPSPEVIAEAHDMLVGFQTEYNWDAAVELVVNAGDPKASSLPRNDWYRLRRSLEILKSTGSPPSSFRIPYDSFRVNLVAPDADDFLEDGSSADISIQNIETDLDYDFLCFFLSSPRVALYRSIDFRCEDMLSGPNGVLSEARWLLDLGLLPNSNPATRAIGYRQAMEYLLQCRRYEGESSPREFYAFLNKFQTASRNFAKRQMTWFRCEPMYHWLNASKPLDSILQCIYDAYESEAEMVEIPESLRMSKDVRDSREASELKGYRSKNRHFVRREDCSSVLEWIRSEGCKSEASCVESAIA
  protein production: failed

## MVIGVPKEIKTLENRVALTPGGVESLVRRGHTVLVERGAGEGSGLSDAEYARAGAELVGREEAWGAEMVVKVKEPLPEEYGFLREGLILFTYLHLAADRGLTEAMLRSGVTGIAYETVQLPDGTLPLLVPMSEVAGRMAPQVGAQFLEKPKGGRGVLLGGVPGVAPASVVILGGGTVGTNAAKIALGMGAQVTILDVNHKRLQYLDDVFGGRVITLTATEANIKKSVQHADLLIGAVLVPGAKAPKLVTRDMLSLMKEGAVIVDVAVDQGGCVETIRPTTHAEPTYVVDGVVHYGVANMPGAVPRTSTFALTNQTLPYVLKLAEKGLDALLEDAALLKGLNTHKGRLTHPGVAEAFGLPYTPPEEALRG
  protein production: not failed

## MVIGVTGKIGTGKSTVCEILKNKYGAHVVNVDRIGHEVLEEVKEKLVELFGGSVLEDGKVNRKKLAGIVFESRENLKKLELLVHPLMKKRVQEIINKTSGLIVIEAALLKRMGLDQLCDHVITVVASRETILKRNREADRRLKFQEDIVPQGIVVANNSTLEDLEKKVEEVMKLVWEKRE
  protein production: not failed

## MVIQEGFSFGNFIIDVFSIFLFILWFWLLITISGDLFRRHDVSGFAKVLWVIFLIVLPYIGVFAYILTQGRGMAERNQERAREARNELRQVVGFSVADELEKLDRLKASGSISEDEFKRLRAKLVE
  protein production: failed

## MVIQIVIISPGDGNLSPAHLLHRFALSLLESLRGKKMMFVGTEEMYLSLICLLHSQIPENYKSMDYLWITHRLLSQDLEILVDYNAMIEFYWAPFLLESNSDNAIVDIVSDRIMRKGLINKHGKHWRGADIVVESSFKDGNKRIVEMESEDAYLMTMGKWVKKSMDPLRTKVFFSTMSPTHYKIEDWGGEQGKNFYNQTTPIQDMNHWPSDCSKTLMKVIGEELDQRADFLVTVLNITQLTSYRKDAHTSIYKKPWSPYDEGSASKSG
  protein production: failed

## MVIRRLYQFCASHVVRNCSSLKCAQNIHGHNYEVEVFIETNRLDNANMALDFGLMQQEMQVFIESFDHAHHFWDKESLEFQRFIENHCVRYVKCSFNLSAESYALMFLYYLTKILQKSVFSNDEGELKVSSVRVHETKNGYAESFLKDLENPHFKSLVHDHCVSFSQGIQNLWHDKDFFNKIISDEKQCFFHAKPLHQIP
  protein production: failed

## MVISSKITDDCSYVKCLSFMMKSRTGNILLAQPENLAHDDDLSQSLLSQVTAVWLWTSLSYGGKPIFNRGISQLVTKKWTIIFNTENTNNHVSLPAPQEISPRLRLASSGTWRLVIGTWE
  protein production: failed

## MVITGKFAMYVTAFVVTVSLIEAFVLWRKRRDGVKPFSWNEVWLSLADLAGRKLSVLLPLSLAAPVFSFAWDHRLFTITLNSALAVFLLFVGQEFCYYWYHRAAHRIRFFWATHAVHHSPNQLTLTSAYRLGWTGKLTGSAVFFAPLVLLGVRPEVVLATLSLNLLYQFWLHNDWMPKLGWFEYVFNTPSAHRVHHASNIDYLDANYGGVLIIFDRLFGTYVEERADEPCRYGLVHPTTTQNPIVNQFEHWVSLGRDMASASKLWHAAAYLIMPPGWAPNGKGTTTEILRRQQEELRQAGWQRPGVV
  protein production: failed

## MVITNFLILLLGLVFLVKGSDYFVKSASSIAKKLGISEFIIGLTLVAVGTSIPELASSMAASIQQASGIVIGNVVGSNIANIGLIVGIAAFLSPMKTEVEMLRRDGYIMLFAALLFFAFALNGELSKIEAGLFLLLYIAYTFFLFEETDKHEGKLYFKEFIKYFVKFQYINSARQKINGINNGVSRTNGDSGNKNCQPKNSFSKDILALILSCAAIIIGAKYFVSESIFFAELLGIPDTIIGTTLVAIGTSLPELAVTVSAARQGYGNIALGNIIGSNITNILMILGVSGLLFPIAVAEISLVFTAPVMIFISVVLLIFISTGWEIKRWEGAALMSLYAAFLFVLFRIS
  protein production: failed

## MVIYDLHESTYKQEVYCNIPDATSWSFPNGVLIKVVRGCWILYEKPHFRGQKCVLEEGEKVLNRDWILQNRRHPQRNFILGSLKRVLKDCSIPEIELFPQSDPACCPVYIQRAVPNLEELNISKSVSFTVKSGVWLAYPDINFKGQATVLEEDHGLFEISTAEMKSLHPLQMGGLKVEMPMNLKVIIYEKPHFHGQAKEFSEHIDSVPNFLKNNGDFHRIGSIRVIGGVWVAYEKEHFKGQQFLLEEGDFEDSNACGALSSPILSFRYLQANFIESSVTLFESDLESGKFIDITNQEISDLEEIGFGSKTRSIHVKSGVWVAYQQKFFCGEQYILEKGKYKCFFDWGGSNNIIMSIRPIQLEPLGINEPPHLLKAFSKPGFQGECIDFTEETSDLTPLMPCSFKVLRGCWLLYYQEDMFVNHCVLEEGLYADLTSCGCPASKVKSLKPIDYVFEEPSISLFALEHCEGRELHLEEAVNSVLNKDLHFYTQSVWVKSGLWIAYEGSNFLGRQILLRPNEIPNWTAFSRWKTIGSLRPMKQPAVYIRIKNRAQGEYLTVTGSLADTRATSVCISPYSGKHTQIWYYCRGLFKSKASDTCLDVIGGRDTPGAKVALWTEHGQFRQKWRLNKNGTISSYLSDQLVLDVKGGNYCDKTHVIVNQPLEGEETQKWDIEIL
  protein production: failed

## MVKATKAEKKIAYDTKLCQLIDEYTQILVVAADNVGSTQLQNIRKGLRGDSVVLMGKNTMMKRSVRIHSENTGNTAILNLLPLLQGNVGLIFTKGDLKEVSEEVAKYKVGAPARVGLVAPIDVVVQPGNTGLDPSQTSFFQVLNIPTKINKGTVEIITPVELIKQGDKVGSSEAALLAKLGIRPFSYGLVVQSVYDNGSVFSPEVLDLTEDQLVEKFASGISMVTSLALAVSYPTLAAAPHMFINAYKNALAIAVATEYTFPQAEKVKEYLKDPSKFAVASVAAVSADAGGGAPAAAKVEEKEESDEEDYGGDFGLFDEE
  protein production: failed

## MVKEPGGKHVLCVGAAVLDTLFRVADMPKGEGKVLPYEVLQIAEGMASSAAYAVHRMGGRASLWGAVGDDETGTRILRDLSESGIDTSGMTVAPGARSALSTIIIDNRGERLIVPFYDHRLHEKKRACTPEDIALFDAVLVDVRWPELALDVLTVARALGKPAILDGDVAPVETLEGLAPAATHIVFSEPAATRLTGLETVKDMLPVLHARYPQTFIAVTAGPAGCWWTEADDPTVHFQTTMQVEAVDTLAAGDIFHGTFALAMAEGMQSRAAVRLSSVAAALKCTVFGGRIGAPTREETEEAMRQWLERESEPALRAS
  protein production: not failed

## MVKHHHLYELSPMVTGWTICVMVLRIYKKFLNLNAFELRLVLADEWGTQIEATIGPRFSAFYFDRIKENQWKTITTFLVRPNCEAIKTTPHQFRILFMDHTIVTSSTPRETGLLNKFTPFDYIVDDVVGNDTLVDLIGALVNVGILTNTASNENDMAGFKLPFTIMDKNKDTLVCEAYGEIAVDLEKRFRAFRKNNVVIALAWWKILRFYPVAAIPEVYLLAPMLAKIVSYVAESGVDSLKSFVKAGLLFKAAVYSKETLSCVRLDRSWYFMLAFHMCELQEAIAILDGIKDVFPHAGLLYIMLHSCAGSIPWEFYRMYKRRYYKFSEVDLFADKLMFHINEVGPRRQGTYKNS
  protein production: failed

## MVKHIVLFKLRDDVPVEEKLVVMNSFKEAIEALPAKISVIRKIEVGLNMNPGETWNIALYSEFDNLDDVKFYATHPEHVAAGKILAETKESRACVDYEF
  protein production: not failed
